The results in this text go back to PMC7969031.

In series [1] the target is Cas1 of the Synechocystis sp. PCC6803 type I-D CRISPR-Cas system, untagged (Synechocystis sp. PCC6803). The experiment in a line: negative-stain electron microscopy.
Series [2] addresses Cas4 of the Synechocystis sp. PCC6803 type I-D CRISPR-Cas system, untagged (Synechocystis sp. PCC6803). The series can be described thus: SEC-MALS.
In series [3] the target is Cas1 of the Synechocystis sp. PCC6803 type I-D CRISPR-Cas system, untagged (Synechocystis sp. PCC6803). The series can be described thus: crystal structure.
In series [4] the target is Cas2 of the Synechocystis sp. PCC6803 type I-D CRISPR-Cas system, untagged (Synechocystis sp. PCC6803). The series can be described thus: crystal structure.
The target in series [5] is T1, Cas1 (type I-D);Cas2 (type I-D) (Synechocystis sp. PCC6803;Synechocystis …, UniProt Q6ZEI2;Q6ZEI1 1-325;1-94, |).
T1 sequence 1: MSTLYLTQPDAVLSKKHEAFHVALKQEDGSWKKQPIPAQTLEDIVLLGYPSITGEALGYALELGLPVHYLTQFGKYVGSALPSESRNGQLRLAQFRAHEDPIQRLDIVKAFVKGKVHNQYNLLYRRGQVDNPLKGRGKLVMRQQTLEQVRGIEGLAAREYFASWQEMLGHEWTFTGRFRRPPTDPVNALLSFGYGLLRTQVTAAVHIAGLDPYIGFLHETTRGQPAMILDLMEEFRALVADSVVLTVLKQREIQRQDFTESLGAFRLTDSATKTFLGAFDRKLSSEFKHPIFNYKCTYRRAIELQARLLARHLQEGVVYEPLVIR
T1 sequence 2: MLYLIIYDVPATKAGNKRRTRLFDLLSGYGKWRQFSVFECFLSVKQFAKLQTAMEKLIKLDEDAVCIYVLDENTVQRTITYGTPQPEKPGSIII
The series can be described thus: X-ray crystal structure.

The target in series [6] is T1, Cas1 (type I-D);Cas2 (type I-D). The experiment in a line: EMSA. (A gel shift assay detects complexes by their altered migration in electrophoresis.)
In a further series the target is T2, Cas1 (type I-D) (Synechocystis sp. PCC6803, UniProt Q6ZEI2 1-325).
T2 sequence: T1 sequence 1
The experiment in a line: EMSA.

Series [7] has as its target T1, Cas1 (type I-D);Cas2 (type I-D). The experiment in a line: X-ray crystal structure. This is another data set of the same source.

“Cas1 of the Synechocystis sp. PCC6803 type I-D CRISPR-Cas system, untagged (natural protein)”: the stoichiometry N in series [1] and in series [3] was 2 throughout. This molecule also showed a stoichiometry N (Cas1 per Cas4) in series [2] of 2.

Consider “Cas2 of the Synechocystis sp. PCC6803 type I-D CRISPR-Cas system, untagged (natural protein)”, for which the stoichiometry N in series [4] amounted to 2.

B1: 26-5-5 double-forked prespacer (dsDNA)
DNA 1: TTTTTTTGTGCCCCTGGCGGTCGCTTTCAAGTTTTT
DNA 2: TTTTTCTTGAAAGCGACCGCCAGGGGCACAATTTTT
For B1, in series [5], the binding result is on record as “binds”.

B2: dsDNA EMSA substrate (dsDNA)
DNA 1: TGTGCCCCTGGCGGTCGCTTTCTTTTT
DNA 2: AAAAAGAAAGCGACCGCCAGGGGCACA
For the molecule B2, the binding result (in series [6]; in the series with Cas1 (type I-D)) was “binds” each time.

B3: 22-7-7 double-forked prespacer (dsDNA)
DNA 1: TTTTTTTTGTGCCCCTGGCGGTCGCTTTCTTTTTTT
DNA 2: TTTTTTTGAAAGCGACCGCCAGGGGCACATTTTTTT
Consider B3, for which the binding result in series [7] is listed as “binds”.

For orientation: stoichiometry N means the number of molecules, sites or subunits per partner or assembly.
